Results on one protein are retold here after patent US5827710, “DNA encoding the subunit of avian lactate dehydrogenase” (Oriental Yeast Co., Ltd., dated 1998).

This series concerns the molecule itself. The experiment in a line: gel filtration column chromatography (SMART system) of the purified recombinant protein: about 147,000 found, against about 36,000 calculated for each subunit. The source says:
3) Determination of the molecular weight of the recombinant chicken LDH-B₄ protein As a result of gel filtration column chromatography analysis of the purified sample by a SMART system (made by Pharmacia), the molecular weight of the purified recombinant chicken LDH-B₄ protein was about 147,000 (FIG. 10). It is presumed that the subunits B of chicken LDH are combined to form a tetramer (theoretical molecular weight of about 140,000) because the molecular weight of each subunit B of chicken LDH is calculated at about 36,000 from its amino acid sequence.

B1: type B subunit of chicken lactate dehydrogenase (recombinant, expressed in Saccharomyces cerevisiae from YRp1G-cLD-B) (enzyme)
chain: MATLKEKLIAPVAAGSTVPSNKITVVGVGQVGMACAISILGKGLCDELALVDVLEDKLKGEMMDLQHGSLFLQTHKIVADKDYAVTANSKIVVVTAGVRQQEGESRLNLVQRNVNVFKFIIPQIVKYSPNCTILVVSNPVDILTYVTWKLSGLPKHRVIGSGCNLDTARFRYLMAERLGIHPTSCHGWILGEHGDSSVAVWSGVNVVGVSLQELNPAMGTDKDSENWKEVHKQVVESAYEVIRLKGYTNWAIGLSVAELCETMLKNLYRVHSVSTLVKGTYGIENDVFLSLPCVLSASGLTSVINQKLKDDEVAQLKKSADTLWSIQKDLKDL
As for B1, the binding result is reported as “binds”.
